The values that follow come from US20220401484A1 (BIONTECH, published 2022).

Assay [1] addresses PRAME peptide … presented by the HLA-A*02:01-encoded molecule (human). Description: cell-based or functional assay.
The target of assay [2] is T1, PRAME peptide on HLA-A*02:02 (human).
T1 peptide: SLLQHLIGL
As to the kind of experiment: cytokine release.

Assay [3] deals with T2, PRAME peptide on HLA-A*02:04 (human).
T2 peptide: SLLQHLIGL
Description: cytokine release.

Assay [4] concerns the target T3, irrelevant peptide peptide on HLA-A*02:01 (human).
T3 peptide: GLSNTHVL
As to the kind of experiment: cytokine release.

For assay [5], the target named is T4, PRAME peptide on HLA-A*02:01 (human).
T4 peptide: SLLQHLIGL
Description: IFN-gamma immunoassay; general statement of the description and claim 4; the same paragraph says preferably less than 10^-8 M (FIG. 2); full-length, on cells.

B1: TCR T23.8-2.1-027-004 (TCR, V domains shown)
V domain 1: GQQLNQSPQSMFIQEGEDVSMNCTSSSIFNTWLWYKQDPGEGPVLLIALYKAGELTSNGRLTAQFGITRKDSFLNISASIPSDVGIYFCAGLADYGGSQGNLIFGKGTKLSVKP
V domain 2: DSGVTQTPKHLITATGQRVTLRCSPRSGDLSVYWYQQSLDQGLQFLIQYYNGEERAKGNILERFSAQQFPDLHSELNLSSLELGDSALYFCASSVWASGGYEQYFGPGTRLTVTE
Consider B1, for which the “EC50 value of the relative IFN-gamma release (peptide concentration on T2 cells)” value in assay [1] was determined as 11.6 nM.

B2: TCR T23.8-2.1-027-004 (TCR, V domains shown)
Valpha: GQQLNQSPQSMFIQEGEDVSMNCTSSSIFNTWLWYKQDPGEGPVLLIALYKAGELTSNGRLTAQFGITRKDSFLNISASIPSDVGIYFCAGLADYGGSQGNLIFGKGTKLSVKP
Vbeta: DSGVTQTPKHLITATGQRVTLRCSPRSGDLSVYWYQQSLDQGLQFLIQYYNGEERAKGNILERFSAQQFPDLHSELNLSSLELGDSALYFCASSVWASGGYEQYFGPGTRLTVT
For B2, the binding result in assay [2] is given as “recognises”; in assay [3], “recognises”; in assay [4], “no recognition”. Moreover, the EC50 of peptide in assay [5] is < 100 nM.
